Laboratory results taken from patent publication CN113512118A (INST BIOPHYSICS CAS, dated 2021).

Molecular target: T1, sCD146蛋白 (CD146胞外区蛋白, Sino Biological 10115-H08H-20) (human, UniProt P43121 24-559)
T1 construct: extracellular domain; also called 胞外区CD146蛋白
T1 sequence (looked up): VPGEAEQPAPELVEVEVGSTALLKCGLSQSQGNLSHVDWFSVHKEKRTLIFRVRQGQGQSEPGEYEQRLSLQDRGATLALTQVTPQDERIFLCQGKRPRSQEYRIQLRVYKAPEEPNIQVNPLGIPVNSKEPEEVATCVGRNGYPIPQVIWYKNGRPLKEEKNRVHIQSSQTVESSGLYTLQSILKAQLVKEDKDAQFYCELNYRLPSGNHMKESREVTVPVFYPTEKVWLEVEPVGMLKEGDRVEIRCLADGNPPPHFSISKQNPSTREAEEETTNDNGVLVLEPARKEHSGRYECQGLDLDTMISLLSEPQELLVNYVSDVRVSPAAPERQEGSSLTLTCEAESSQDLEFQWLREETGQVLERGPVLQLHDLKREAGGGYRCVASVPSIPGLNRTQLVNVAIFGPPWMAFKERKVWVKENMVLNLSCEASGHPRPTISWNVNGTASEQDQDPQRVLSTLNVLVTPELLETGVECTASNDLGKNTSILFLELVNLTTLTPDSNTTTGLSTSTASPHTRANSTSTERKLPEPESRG
Experiment: BLI (Octet Red96), antibody on Anti-Mouse Fc Capture sensor, sCD146 at 250-3.91 nM

- Kd: 1.12 nM
B1: AA98抗体 (mouse monoclonal anti-CD146 antibody AA98) (antibody, mouse IgG2a, kappa, V domains shown)
VH: EVQLLESGAELVRPGASVKLSCKTSGYIFTNYWIHWVKNRSGNGLEWIARIYPGTDITYYNEKFKGKATLTVDKSSSSAYMLLSSLKSEDSSVYFCARSGGYWYFDVWGAGTTVTVSS
VL: ELVMTQSPASLAVSLGQRATISCRASKSVSISGYSYMHWYQQKPGQPPKLLIYLASNLESGVPARFSGSGSGTDFTLNIHPVEEEDAATYYCQHSRELPYTFGGGTKLEIKR
notes: also called 母本AA98抗体; 亲本AA98抗体
